Target: T1, GST-fusion protein containing the PDZ domain of Dsh (Drosophila, UniProt P51140 250-338)
T1 construct: One of the smaller segments of the DM region made as GST fusions; not shown: glutathione S-transferase (GST) from a GST expression vector
T1 chain: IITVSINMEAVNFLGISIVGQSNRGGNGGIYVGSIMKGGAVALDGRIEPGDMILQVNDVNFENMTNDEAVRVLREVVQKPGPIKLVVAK
Test: GST pull-down with segments of the DM region; in vitro kinase assay
Procedure: Lysates in buffer A with PIC were incubated with anti-Dsh or anti-DAK antibodies for 2-4 hours at 4° C. The immune complexes were collected by incubation with protein-A beads for 2 hours at 4° C., followed by centrifugation. The immunoprecipitates were then washed three times for 5-10 minutes each with Buffer A and subjected to SDS-PAGE or in vitro kinase assay. For precipitation by GST fusion proteins containing various regions of Dsh, lysates in buffer A with PIC were incubated for 2-4 hours at 4° C. with fusion proteins immobilized on glutathione agarose beads, followed by brief centrifugation. The glutathione beads were then washed three time for 5-10 minutes each with Buffer A and subjected to in vitro kinase assay, as described below.
The DAK activity was determined by a solid phase in vitro kinase assay after being brought down by immunoprecipitation (IP) or GST precipitation. The washed protein A or glutathione beads were then washed once with kinase buffer (50 mM Tris (pH 7.6), 10 mM MgCl₂) for 5 minutes at 4° C. The kinase reactions were carried out at room temperature for 30 minutes in a reaction volume of 20 μl containing 5:1 washed IP or GST beads, 1 μl [γ-³²P] ATP (10 μCi at 5000 Ci/mmol, Amersham) and 14 μl kinase buffer. […] The membranes were exposed to X-ray films or quantitated as indicated. […]

binding result: no binding
B1: Dishevelled Associated Kinase (DAK), endogenous kinase activity from Drosophila embryo and Clone-8 cell lysates (enzyme)
chain: MSTAMRTTLQSVPEALPADSVSNGTASNVAAPAAPVSSATNAVPPLAAVSSTTATYATNSISTSSHSVKDQQQQQQQQQHDSANANIVSLPPTTTPVANTNTMMPIVTSSNSATSNSTAATPTPASGAAATGGVGSVSQGPATVSASAANTNHSHQHSHQHHHHVANNMTTDGARLSSNNSAVVASSAINHHHHHTPGSGVAPTVNKNVLSTHSAHPSAIKQRTSSAKGSPNMQMRSSAPMRWRATEEHIGKYKLIKTIGKGNFAKVKLAKHLPTGKEVAIKIIDKTQLNPGSLQKLFREVRIMKMLDHPNIVKLFQVIETEKTLYLIMEYASGGEVFDYLVLHGRMKEKEARVKFRQIVSAVQYCHQKRIIHRDLKAENLLLDSELNIKIADFGFSNEFTPGSKLDTFCGSPPYAAPELFQGKKYDGPEVDVWSLGVILYTLVSGSLPFDGSTLRELRERVLRGKYRIPFYMSTDCENLLRKFLVLNPAKRASLETIMGDKWMNMGFEEDELKPYIEPKADLADPKRIEALVAMGYNRSEIEASLSQVRYDDVFATYLLLGRKSTDPESDGSRSGSSLSLRNISGNDAGANAGSASVQSPTHRGVHRSISASSTKPSRRASSGAETLRVGPTNAAATVAAATGAVGAVNPSNNYNAAGSAADRASVGSNFKRQNTIDSATIKENTARLAAQNQRPASATQKMLTTADTTLNSPAKPRTATKYDPTNGNRTVSGTSGIIPRRSTTLYEKTSSTEKTNVIPAETKMASAVKSSRHFPRNVPSRSTFHSGQTRARNNTALEYSGTSGASGDSSHPGRMSFFSKLSSRFSKRPNQ
notes: Native activity from lysates, not a defined construct; also called Dishevelled associated kinase activity; Dsh associated kinase activity
